Measurements published in PMC5881884 (Biochimica et biophysica acta, 2017).

Biological target: the molecule itself
Assay: native gel or EMSA

B1: 14-3-3ζ pseudo-WT (C25A, C189A) (natural protein)
chain: MDKNELVQKAKLAEQAERYDDMAAAMKSVTEQGAELSNEERNLLSVAYKNVVGARRSSWRVVSSIEQKTEGAEKKQQMAREYREKIETELRDICNDVLSLLEKFLIPNASQAESKVFYLKMKGDYYRYLAEVAAGDDKKGIVDQSQQAYQEAFEISKKEMQPTHPIRLGLALNFSVFYYEILNSPEKAASLAKTAFDEAIAELDTLSEESYKDSTLIMQLLRDNLTLWTSDTQGDEAEAGEGGEN
- stoichiometry N: 2
